Assay in all cases: ITC; 0.5–1 mM peptide titrated into 10–40 μM ecdTDR; 25°C; 10 mM sodium citrate, 100 mM NaCl, pH 5.5; fitted to one set of binding sites; MicroCal Auto-iTC200
What all share (details): both partners purified

For test [1], the target named is T1, ecdTDR F279/F281 double alanine mutant (Arabidopsis thaliana, UniProt Q9FII5 30-642, F279 to alanine | F281 to alanine).
T1 construct: TDR/PXY of A. thaliana, extracellular domain, residues 30-642; also called F279A/F281A; source: High Five insect cells (baculovirus), secreted, purified as the wild type (Ni-NTA, size-exclusion chromatography)
T1 sequence (looked up): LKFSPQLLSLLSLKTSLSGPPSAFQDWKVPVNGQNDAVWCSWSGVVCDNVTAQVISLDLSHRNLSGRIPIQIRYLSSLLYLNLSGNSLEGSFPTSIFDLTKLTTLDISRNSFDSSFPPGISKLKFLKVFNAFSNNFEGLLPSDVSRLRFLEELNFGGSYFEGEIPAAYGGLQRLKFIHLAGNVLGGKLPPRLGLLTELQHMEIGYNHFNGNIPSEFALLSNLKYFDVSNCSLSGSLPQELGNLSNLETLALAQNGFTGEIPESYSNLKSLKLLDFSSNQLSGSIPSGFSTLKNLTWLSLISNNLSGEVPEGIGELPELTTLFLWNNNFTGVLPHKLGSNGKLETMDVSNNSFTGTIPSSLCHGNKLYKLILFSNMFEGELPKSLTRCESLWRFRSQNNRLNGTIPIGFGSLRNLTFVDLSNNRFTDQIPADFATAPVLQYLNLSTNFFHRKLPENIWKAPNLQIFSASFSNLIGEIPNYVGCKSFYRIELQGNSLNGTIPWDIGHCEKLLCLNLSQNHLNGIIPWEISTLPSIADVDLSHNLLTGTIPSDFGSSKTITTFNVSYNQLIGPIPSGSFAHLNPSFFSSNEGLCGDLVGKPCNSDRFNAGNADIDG

Test [2] concerns the target T2, ecdTDR mutant with all five N-terminal anchoring site-binding residues replaced by alanine (Arabidopsis thaliana, UniProt Q9FII5 30-642).
T2 chain: T1 sequence (looked up) with R109A, F132A, S133A, S158A, Y159A, A250F, A252F

The next test addresses T3, ecdTDR W353A mutant (Arabidopsis thaliana, UniProt Q9FII5 30-642, W353A).
T3 construct: TDR/PXY of A. thaliana, extracellular domain, residues 30-642; source: High Five insect cells (baculovirus), secreted, purified as the wild type (Ni-NTA, size-exclusion chromatography)
T3 sequence (looked up): T1 sequence (looked up) with A250F, A252F, W324A

Positions count from the first letter of the chain named. Square brackets hold non-standard residues; d marks the D form. Ends that are not written are not given here. Hyp = O=C(O)[C@@H]1C[C@@H](O)CN1

B1: Tracheary Element Differentiation Inhibitory Factor (TDIF) peptide (peptide)
peptide: HEV[Hyp]SG[Hyp]NPISN
notes: TDIF, the 12-residue CLE peptide processed from CLE41 and CLE44 of A. thaliana; printed as HEV(Hyp)SG(Hyp)NPISN; numbers count on: the 12-residue peptide; CLE44 encodes the same peptide; also called wild type TDIF; wtTDIF; source: synthetic peptide (peptide 2.0)
In the case of B1, the “fold decrease in binding against wild-type ecdTDR” value in test [1] came out at 8.6 fold. Also, the “fold decrease in affinity against wild-type ecdTDR” value in test [2] came out at 31.4 fold. Also, the “fold lower binding than wild-type ecdTDR” value with ecdTDR W353A mutant was 8.4 fold.

The record behind these values is article PMC5383425, “Differential CLE peptide perception by plant receptors implicated from structural and functional analyses of TDIF-TDR interactions” (PLoS ONE, 2017).
